Measurements taken from patent US20080292632A1 (US Dept. of Health and Human Services, published 2008).

Legend:
Experiment in all cases: FACS on transfected 293T (summary with IRTA-Fc ELISA, FIG. 2A and B)
[1] = molecular target: T1, IRTA1, full-length, on transfected 293T cells (human, UniProt Q96PJ5 20-515)
T1 sequence: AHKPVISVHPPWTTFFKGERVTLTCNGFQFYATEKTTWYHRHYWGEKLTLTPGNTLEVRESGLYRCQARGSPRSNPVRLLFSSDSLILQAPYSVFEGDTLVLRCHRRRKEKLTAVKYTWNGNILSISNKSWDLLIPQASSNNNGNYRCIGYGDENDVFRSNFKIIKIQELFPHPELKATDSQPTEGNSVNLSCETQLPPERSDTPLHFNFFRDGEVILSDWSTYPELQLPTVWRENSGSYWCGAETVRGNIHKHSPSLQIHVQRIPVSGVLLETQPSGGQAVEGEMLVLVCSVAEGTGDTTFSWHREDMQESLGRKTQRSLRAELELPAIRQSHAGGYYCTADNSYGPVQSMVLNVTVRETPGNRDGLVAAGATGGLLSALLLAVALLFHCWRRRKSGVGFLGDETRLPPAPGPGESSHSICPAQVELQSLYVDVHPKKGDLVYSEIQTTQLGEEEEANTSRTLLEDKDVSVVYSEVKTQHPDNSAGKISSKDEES
Protocol: (§1) FIGS. 2A-B are a bar graph and a set of plots showing the cross-reactivity of the anti-IRTA2 MAbs to other IRTA family members. FIG. 2A is a bar graph of the results from an ELISA of anti-IRTA2 MAbs to various Fc-fusion proteins. Each Fc-fusion protein indicated on the top of the column was captured on ELISA plates using secondary antibody (goat anti-human IgG). After washing, 100 ng/50 μl/well of MAbs were added, followed by HRP-labeled goat anti-mouse IgG and TMBZ substrate. The signals in ELISA were normalized for the amounts of each Fc-fusion protein on the plates using HRP-goat anti-human Fc. The controls are MAbs 9E10 (anti-myc tag, IgG1), BerH2 (anti-CD30, IgG1), T408 (anti-CD30, IgG2a), T420 (anti-CD30, IgG2b) and HRP-goat anti-human Fc (1/2400 dilution). […] Two days after transfection, the cells were harvested and incubated with 200 ng/100 μl of each MAb, followed by PE-conjugated goat anti-mouse IgG F(ab′)2. […] In the positive control panels, the MAbs cross-reactive to other IRTAs were used. They are F26 (anti-IRTA1 and anti-IRTA2, IgG2b), F109 (anti-IRTA3, IgG2b), F47 (anti-IRTA4, IgG2a), and F69 (anti-IRTA5, IgG2a). BerH2 (anti-CD30, IgG1) was also used. “+” indicates more than 1.5-fold than that of the control; “++” indicates more than 10-fold mean fluorescence intensity than that of the negative control.

[2] = molecular target: T2, IRTA3, full-length, on transfected 293T cells (human, UniProt Q96P31 18-734)
T2 sequence: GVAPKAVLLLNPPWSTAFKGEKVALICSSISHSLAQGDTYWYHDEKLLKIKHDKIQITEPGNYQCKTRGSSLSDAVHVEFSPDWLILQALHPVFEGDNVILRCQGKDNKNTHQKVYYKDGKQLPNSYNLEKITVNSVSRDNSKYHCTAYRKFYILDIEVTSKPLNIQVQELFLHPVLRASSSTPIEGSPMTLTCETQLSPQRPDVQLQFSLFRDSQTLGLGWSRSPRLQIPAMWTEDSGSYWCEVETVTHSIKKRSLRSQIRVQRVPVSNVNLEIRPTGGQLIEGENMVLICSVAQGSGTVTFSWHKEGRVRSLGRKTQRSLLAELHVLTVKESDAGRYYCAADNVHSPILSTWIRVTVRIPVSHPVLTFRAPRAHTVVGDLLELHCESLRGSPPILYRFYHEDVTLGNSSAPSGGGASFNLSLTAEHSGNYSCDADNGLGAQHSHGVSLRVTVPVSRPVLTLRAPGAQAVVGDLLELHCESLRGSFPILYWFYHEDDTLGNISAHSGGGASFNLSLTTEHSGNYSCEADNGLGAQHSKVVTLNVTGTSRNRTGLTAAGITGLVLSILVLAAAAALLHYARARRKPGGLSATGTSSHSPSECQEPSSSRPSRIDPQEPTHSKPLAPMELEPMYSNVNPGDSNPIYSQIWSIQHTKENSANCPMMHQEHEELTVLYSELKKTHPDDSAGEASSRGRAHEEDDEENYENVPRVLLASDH
Protocol: as §1

[3] = molecular target: T3, IRTA4, full-length, on transfected 293T cells (human, UniProt Q96LA5 20-508)
T3 sequence: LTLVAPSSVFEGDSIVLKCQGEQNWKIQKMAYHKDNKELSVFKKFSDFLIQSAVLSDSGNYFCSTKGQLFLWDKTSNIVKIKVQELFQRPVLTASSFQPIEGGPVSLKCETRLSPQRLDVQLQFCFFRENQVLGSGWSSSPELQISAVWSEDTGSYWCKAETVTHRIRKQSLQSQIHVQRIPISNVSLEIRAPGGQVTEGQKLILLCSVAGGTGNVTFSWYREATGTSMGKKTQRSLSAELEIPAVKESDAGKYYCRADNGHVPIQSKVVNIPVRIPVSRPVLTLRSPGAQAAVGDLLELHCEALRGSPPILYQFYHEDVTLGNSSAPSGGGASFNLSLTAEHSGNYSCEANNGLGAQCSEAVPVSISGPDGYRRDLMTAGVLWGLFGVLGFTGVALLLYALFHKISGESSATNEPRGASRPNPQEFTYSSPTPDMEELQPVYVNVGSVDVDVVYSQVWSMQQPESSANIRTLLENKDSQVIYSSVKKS
Protocol: as §1

[4] = molecular target: T4, IRTA5, full-length, on transfected 293T cells (human, UniProt Q96LA6 17-429)
T4 sequence: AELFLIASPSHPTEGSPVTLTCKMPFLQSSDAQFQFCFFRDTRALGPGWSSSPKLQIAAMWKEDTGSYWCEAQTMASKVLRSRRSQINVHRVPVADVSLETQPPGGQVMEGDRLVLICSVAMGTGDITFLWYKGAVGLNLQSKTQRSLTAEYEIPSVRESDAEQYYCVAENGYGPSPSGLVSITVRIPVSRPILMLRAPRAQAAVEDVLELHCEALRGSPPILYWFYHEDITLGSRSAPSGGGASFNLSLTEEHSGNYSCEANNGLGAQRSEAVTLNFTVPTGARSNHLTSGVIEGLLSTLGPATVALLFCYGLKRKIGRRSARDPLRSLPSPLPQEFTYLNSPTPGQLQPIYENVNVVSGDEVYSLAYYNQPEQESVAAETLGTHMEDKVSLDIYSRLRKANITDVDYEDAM
Protocol: as §1

binding result [1]: no binding
binding result [2]: no binding
binding result [3]: no binding
binding result [4]: no binding
B1: F25 (antibody, IgG2a, V domains shown)
VH: EVQLQQSGPELVKPGTSVKMSCKASGYSFTGYFMNWMMQNHGKSLEWIGRINLYNGDTFYNQKFKDKATLTVDKSSNTVHMEFRSLASEDSAVYYCASSLYYFDYWGQGTTFTVSS
VL: DIVMTQSHKFMSTSVGDRVNITCKASQDVGTNVAWYQQKPGQSPKLLIYWASTRQTGVPDRFTGSGSGTDFTLTISNVQSEDLSDYFCQQYSSYPLTFGAGTKLELKR
notes: mouse hybridoma MAb, IgG2a, kappa; also called MAb F25; biotin-MAb F25
